Several values for one entry are separate records, joined by “and”; a condition that tells them apart may be missing. Identical values can stand only once.
Biological target: recombinant ATcpnβ thermosome subunit from Acidianus tengchongensis strain S5 (Acidianus tengchongensis strain S5)
Test: cryo-EM structure

Substance: recombinant ATcpnβ thermosome subunit from Acidianus tengchongensis strain S5 (natural protein)
- subunits per ring (symmetry of top views): 9 and 10

Source: publication PMC3048791
